PMC7305465, “A Cardiac Troponin T Biosensor Based on Aptamer Self-assembling on Gold”

Biological target: cardiac troponin T (TnT) (human, UniProt P45379 2-298)
Experiment: electrochemical aptasensor (DPV, ferro/ferricyanide); 0.05-5 ng/mL TnT; LOD 0.01 ng/mL; aptamer on gold; TnT binding at 37 C, ~30 min, working pH 7.4; aptamer immobilized from 10 mM phosphate, 5 mM NaCl, 2 mM KCl, 1 mM MgCl2, pH 7.4; DPV in 20 mM Tris-HCl, 0.5 M KCl, 0.5 M ferro/ferricyanide
Details: protein: commercial

B1: TnT aptamer (structured_DNA)
DNA: CGTGCAGTACGCCAACCTTTCTCATGCGCTGCCCCTCTTA
modifications: 5'-SH-(CH2)6 thiol
binding result: binds
